Measured values: patent EP1034789A1

Target: human MIP-1α (human) (UniProt P10147)
Test: 125I-MIP-1α bound to human monocytic cells, Exp. 1, 200X molar excess M-T1

Chain of UniProt P10147 (P10147 24-92 limits assumed): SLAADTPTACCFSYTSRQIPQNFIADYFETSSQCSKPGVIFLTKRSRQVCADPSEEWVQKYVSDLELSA

myxoma T1 protein (type-2 CBP)
Surface Bound MIP-1α: 978 cpm
